Laboratory results from patent US20210292396A1.

Experiments:
Experiment in all cases: cell-based or functional assay
[1] = target: HIV Env of isolate 16055-2.3 (HIV)
[2] = target: Env of HIV isolate CNE59 (clade AE) (HIV)
[3] = target: Env of HIV isolate REJO.67 (clade B) (HIV)
[4] = target: Env of HIV isolate CNE8 (clade AE) (HIV)
[5] = target: HIV Env of isolate TRJO.58 (HIV)
[6] = target: HIV Env of isolate RHPA.7 (HIV)
[7] = target: Env of HIV isolate 6471.v1.c16 (clade C) (HIV)
[8] = target: Env of HIV isolate 0013095-2.11 (clade C) (HIV)
[9] = target: Env of HIV isolate TV1.29 (clade C) (HIV)
[10] = target: Env of HIV isolate QH0515.01 (clade B) (HIV)
[11] = target: Env of HIV isolate 3337.v2.c6 (clade CD) (HIV)
[12] = target: HIV Env of isolate YU2.DG (HIV) (UniProt P35961)
[13] = target: HIV Env of isolate DU151.02 (HIV)
[14] = target: Env of HIV isolate 191821.E6.1 (clade D) (HIV)
[15] = target: HIV Env of isolate CNE56 (HIV)
[16] = target: Env of HIV isolate RHPA.7 (clade B) (HIV)
[17] = target: HIV Env of isolate CNE55 (HIV)
[18] = target: Env of HIV isolate 3718.v3.c11 (clade A) (HIV)
[19] = target: HIV Env of isolate 3016.v5.c45 (HIV)
[20] = target: Env of HIV isolate 6838.v1.c35 (clade C) (HIV)
[21] = target: HIV Env of isolate 6322.v4.c1 (HIV)
[22] = target: HIV Env of isolate BaL.26 (HIV)
[23] = target: Env of HIV isolate Q23.17 (clade A) (HIV)
[24] = target: Env of HIV isolate T33-7 (clade AG) (HIV)
[25] = target: HIV Env of isolate CNE59 (HIV)
[26] = target: HIV Env of isolate CNE10 (HIV)
[27] = target: HIV Env of isolate Q769.d22 (HIV)
[28] = target: HIV Env of isolate THRO.18 (HIV)
[29] = target: HIV Env of isolate 3637.v5.c3 (HIV)
[30] = target: HIV Env of isolate JRFL.JB (HIV)
[31] = target: Env of HIV isolate 26191-2.48 (clade C) (HIV)
[32] = target: Env of HIV isolate T257-31 (clade AG) (HIV)
[33] = target: HIV Env of isolate 426c (HIV)
[34] = target: HIV Env of isolate 398-F1.F6.20 (HIV)
[35] = target: Env of HIV isolate BaL.26 (clade B) (HIV)
[36] = target: Env of HIV isolate CNE20 (clade BC) (HIV)
[37] = target: Env of HIV isolate BJOX010000.06.2 (clade AE) (HIV)
[38] = target: HIV Env of isolate 269-12 (HIV)
[39] = target: Env of HIV isolate 3468.v1.c12 (clade AD) (HIV)
[40] = target: HIV Env of isolate M02138 (HIV)
[41] = target: Env of HIV isolate CNE58 (clade C in Table 7) (HIV)
[42] = target: HIV Env of isolate 620345.c1 (HIV)
[43] = target: Env of HIV isolate 001428-2.42 (clade C) (HIV)
[44] = target: Env of HIV isolate 7165.18 (clade B) (HIV)
[45] = target: HIV Env of isolate MW965.26 (HIV)
[46] = target: Env of HIV isolate TRJO.58 (clade B) (HIV)
[47] = target: Env of HIV isolate M02138 (clade AE) (HIV)
[48] = target: HIV Env of isolate MI369.A5 (HIV)
[49] = target: Env of HIV isolate X1193.c1 (clade G) (HIV)
[50] = target: HIV Env of isolate CE703010217.B6 (HIV)
[51] = target: Env of HIV isolate 928-28 (clade AG) (HIV)
[52] = target: HIV Env of isolate BR025.9 (HIV)
[53] = target: HIV Env of isolate BX08.16 (HIV)

Sequence of HIV Env of isolate YU2.DG (HIV) (P35961 32-843 limits assumed): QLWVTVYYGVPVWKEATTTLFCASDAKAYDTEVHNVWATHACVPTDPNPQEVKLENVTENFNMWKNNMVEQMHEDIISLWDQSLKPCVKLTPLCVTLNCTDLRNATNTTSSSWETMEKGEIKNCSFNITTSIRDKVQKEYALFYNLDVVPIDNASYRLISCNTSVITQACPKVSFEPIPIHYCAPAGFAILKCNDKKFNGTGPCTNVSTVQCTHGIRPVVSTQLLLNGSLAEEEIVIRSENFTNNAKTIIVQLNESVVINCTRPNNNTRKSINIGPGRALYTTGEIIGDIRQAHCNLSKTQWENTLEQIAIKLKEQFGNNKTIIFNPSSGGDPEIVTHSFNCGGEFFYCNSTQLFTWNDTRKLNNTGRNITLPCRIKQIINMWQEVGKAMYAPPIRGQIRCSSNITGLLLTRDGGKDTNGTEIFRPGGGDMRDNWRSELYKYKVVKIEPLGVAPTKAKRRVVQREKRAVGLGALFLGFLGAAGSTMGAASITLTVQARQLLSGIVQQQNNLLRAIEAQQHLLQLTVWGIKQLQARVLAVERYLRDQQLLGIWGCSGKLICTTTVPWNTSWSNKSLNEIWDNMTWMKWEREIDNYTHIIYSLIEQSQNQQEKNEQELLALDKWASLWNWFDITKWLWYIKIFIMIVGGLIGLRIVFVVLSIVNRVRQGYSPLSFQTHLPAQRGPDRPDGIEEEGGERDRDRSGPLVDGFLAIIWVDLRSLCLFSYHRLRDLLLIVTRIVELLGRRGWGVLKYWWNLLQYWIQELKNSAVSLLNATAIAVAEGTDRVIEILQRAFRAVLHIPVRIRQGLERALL

## PGT121 (antibody)
[1]
  IC80, pseudovirus neutralization: 2.78 µg/mL
[2]
  IC50, pseudovirus neutralization: > 50 µg/mL
[3]
  IC50, pseudovirus neutralization: 1.96 µg/mL
[4]
  IC50, pseudovirus neutralization: > 50 µg/mL
[5]
  IC80: 18.6 µg/mL
[6]
  IC80: 0.093 µg/mL
[7]
  IC50, pseudovirus neutralization: > 50 µg/mL
[8]
  IC50, pseudovirus neutralization: > 50 µg/mL
[9]
  IC50, pseudovirus neutralization: 0.146 µg/mL
[10]
  IC50, pseudovirus neutralization: 2.83 µg/mL
[11]
  IC50, pseudovirus neutralization: 1.39 µg/mL
[12]
  IC80: 0.126 µg/mL
[13]
  IC80, pseudovirus neutralization: 0.0283 µg/mL
[14]
  IC50, pseudovirus neutralization: > 50 µg/mL
[15]
  IC80: > 50 µg/mL
[16]
  IC50, pseudovirus neutralization: 0.0357 µg/mL
[17]
  IC80: > 50 µg/mL
[18]
  IC50, pseudovirus neutralization: 0.559 µg/mL
[19]
  IC80, pseudovirus neutralization: > 50 µg/mL
[20]
  IC50, pseudovirus neutralization: 0.0613 µg/mL
[21]
  IC80, pseudovirus neutralization: > 50 µg/mL
[22]
  IC80: 0.06 µg/mL
[23]
  IC50, pseudovirus neutralization: 0.0107 µg/mL
[24]
  IC50, pseudovirus neutralization: > 50 µg/mL
[25]
  IC80: > 50 µg/mL
[26]
  IC80: 0.048 µg/mL
[27]
  IC80: > 50 µg/mL
[28]
  IC80: > 50 µg/mL
[29]
  IC80, pseudovirus neutralization: > 50 µg/mL
[30]
  IC80: 0.107 µg/mL
[31]
  IC50, pseudovirus neutralization: 0.085 µg/mL
[32]
  IC50, pseudovirus neutralization: > 50 µg/mL
[33]
  IC80, pseudovirus neutralization: > 50 µg/mL
[34]
  IC80: 0.0527 µg/mL
[35]
  IC50, pseudovirus neutralization: 0.0227 µg/mL
[36]
  IC50, pseudovirus neutralization: 0.005 µg/mL
[37]
  IC50, pseudovirus neutralization: > 50 µg/mL
[38]
  IC80: 0.627 µg/mL
[39]
  IC50, pseudovirus neutralization: 0.0763 µg/mL
[40]
  IC80: > 50 µg/mL
[41]
  IC50, pseudovirus neutralization: 9.34 µg/mL
[42]
  IC80: > 50 µg/mL
[43]
  IC50, pseudovirus neutralization: 0.0337 µg/mL
[44]
  IC50, pseudovirus neutralization: 0.0363 µg/mL
[45]
  IC80, pseudovirus neutralization: 0.093 µg/mL
[46]
  IC50, pseudovirus neutralization: 1.63 µg/mL
[47]
  IC50, pseudovirus neutralization: > 50 µg/mL
[48]
  IC80: 0.128 µg/mL
[49]
  IC50, pseudovirus neutralization: 0.0457 µg/mL
[50]
  IC80, pseudovirus neutralization: 0.0173 µg/mL
[51]
  IC50, pseudovirus neutralization: 5.76 µg/mL
[52]
  IC80, pseudovirus neutralization: 0.0253 µg/mL
[53]
  IC80: 0.021 µg/mL
